T1: Y259G (limits assumed)
T1 construct: not in the list MOLECULES; also called human CD117 D1-2-3 variant Y259G
T1 extracellular domains 1, 2 and 3: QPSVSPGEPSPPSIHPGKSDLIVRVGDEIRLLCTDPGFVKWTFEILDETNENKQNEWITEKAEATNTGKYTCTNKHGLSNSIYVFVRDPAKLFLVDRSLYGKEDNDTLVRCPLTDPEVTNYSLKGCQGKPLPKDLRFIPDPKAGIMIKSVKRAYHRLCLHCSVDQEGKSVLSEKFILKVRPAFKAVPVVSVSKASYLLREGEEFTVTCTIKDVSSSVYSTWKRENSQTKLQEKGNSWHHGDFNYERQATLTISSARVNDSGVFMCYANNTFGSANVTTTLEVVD

B1: Refmab #3 (antibody, V domains shown)
VH: EVQLVQSGAEVKKPGESLKISCKGSGYSFTNYWIGWVRQMPGKGLEWMAIINPRDSDTRYRPSFQGQVTISADKSISTAYLQWSSLKASDTAMYYCARHGRGYEGYEGAFDIWGQGTLVTVSS
VL: DIQMTQSPSSLSASVGDRVTITCRSSQGIRSDLGWYQQKPGKAPKLLIYDASNLETGVPSRFSGSGSGTDFTLTISSLQPEDFATYYCQQANGFPLTFGGGTKVEIK
B2: Refmab #3 Fab fragment (Fab, V domains shown)
VH: B1 VH
VL: B1 VL
B3: S261V (receptor)
extracellular domains 1, 2 and 3: T1 extracellular domains 1, 2 and 3 with G234Y, S236V
notes: not in the list MOLECULES; also called human CD117 D1-2-3 variant S261V

Substitutions are numbered along the chain they refer to. Names and notes keep the numbering of the source.

The subject of experiment [1] is wild type TF-1 cells. The experiment in a line: Inhibition of SCF-dependent proliferation, wild type TF-1 cells. It counts as cell-based, human. The following applies: 100 ng/ml SCF; increasing concentrations; 3 days. As to the method:
(§1) SCF-dependent proliferation is another function of CD117. SCF-dependent proliferation was measured as follows: TF-1 cells were seeded at a cell concentration of 150 000 cells/ml in sterile, white cell culture treated plates in RPMI Media+10% FCS. Cells were treated with 100 ng/ml of SCF and a titration of various CD117 antibodies or an isotype control antibody at different concentrations. After 3 days of incubation a CellTiter-Glo 2.0 assay (Promega) was performed and luminescence was read in a luminometer (e.g. Envision or Phera Star plate readers).
(§2) Next, proliferation of the variants was tested with increasing concentrations of RefMab #1 at a constant concentration of SCF (100 ng/ml). TF-1 cells were seeded at a cell concentration of 150 000 cells/ml in sterile, white cell culture treated plates with transparent bottom in RPMI+GlutaMax+10% FCS and a fix concentration of 100 ng/ml SCF in the media, Cells were treated with different concentrations of RefMab #1. After 3 days of incubation a CellTiter-Glo 2,0 assay (Promega) was performed, luminescence was read in a luminometer (Envision plate reader).

For experiment [2], the system named is TF-1 cells with knock-ins of CD117 variants. In words: Inhibition of SCF-dependent proliferation, TF-1 cells with CD117 variant knock-in. The experiment is classed as cell-based, human. The conditions noted are these: 100 ng/ml SCF; increasing concentrations; 3 days; E73K; all variants tested. As to the method: as §1
CD117 wild-type TF-1 cells were compared to TF1 cells with a E73K knock in. […] Both KI1 and KI2 were obtained upon sorting the edited TF1 cells using the SONY MA900, removing any wild-type and knock out cells from the final subsets, thus yielding high purity of knock in.
as §2

For experiment [3], the system named is CD117. The experiment in a line: Blocking of SCF-induced CD117 phosphorylation (Tyr719 ELISA), wild type TF-1 cells. It counts as cell-based, human. The following applies: 0.5 ug/mL antibody or 500 nM avapritinib; 100 ng/ml SCF 5 minutes. As to the method:
(§3) SCF-dependent phosphorylation is another function of CD117. SCF-dependent phosphorylation was measured using TF-1 cells expressing CD117 (as shown in previous experiments). TF-1 cells were seeded at a concentration of 1 million cells/ml in 1 ml of Medium (RPMI1640 supplemented with GlutaMAX+10% heat inactivated FBS) in a 6-well plate. Cells were treated with 0.5 ug/mL antibody or 500 nM avapratinib. Cells were then treated with 100 ng/ml recombinant human SCF (1 mg/ml PeproGMP® Recombinant Human SCF) for 5 minutes, before cell collection. Cells were washed with ice-cold PBS, before resuspending cells in 250 μL Lysis Buffer (Lysis buffer from Signaling containing Protease Inhibitor and Phosphatase Inhibitor). Cells were flash frozen in liquid nitrogen and thawed at 37° C. twice, before freezing them at −80° C. until further usage. Undiluted samples were thawed and processed according to the manufacturers protocol for the PathScan® Phospho-c-Kit (Tyr719) Sandwich ELISA Kit (Cell Signaling). Absorbance (OD_450 nm) was assessed using the Envision (Perkin Elmer).
(§4) TF-1 cells (wild type, and variants E73K, E73Y, D121K, S123F and S123K of CD117) were seeded at a concentration of 1 million cells/mL in 2 ml of Medium (RPMI1640 supplemented with GlutaMAX+10% heat inactivated FBS) in a 6-well plate. Cells were pre-treated with 0.5 μg/ml of antibodies Refmab #1-Ernie or Refmab #1-Bert for 30 minutes, before adding 100 ng/ml recombinant human SCF (1 mg/mL PeproGMP® Recombinant Human SCF) for 5 minutes. Cells were collected, washed once with ice-cold PBS and resuspended in 500 μL Lysis Buffer (Lysis buffer from Signaling containing Protease Inhibitor and Phosphatase Inhibitor). Cells were then flash frozen in liquid nitrogen and thawed at 37° C. twice, before freezing them at −80° C. until further usage. Undiluted samples were thawed and processed according to the manufacturers protocol for the PathScan Phospho-c-Kit (Tyr719) Sandwich ELISA Kit (Cell Signaling) or the Human c-Kit (CD117) ELISA Kit (Abcam). Absorbance (OD_450 nm) was assessed using the Envision (Perkin Elmer).

Experiment [4] concerns variants of CD117. In words: Blocking of SCF-induced CD117 phosphorylation (Tyr719 ELISA), TF-1 cells with CD117 variants. The experiment is classed as cell-based, human. The conditions noted are these: 0.5 ug/mL antibody or 500 nM avapritinib; 100 ng/ml SCF 5 minutes. How it is done:
as §3, §4
In general terms: An ELISA detects its analyte on a solid surface through an enzyme-linked reagent.

The target of experiment [5] is T2, human wild-type CD117 (human, UniProt P10721 26-976).
T2 construct: also called wt CD117; KIT
The experiment in a line: flow cytometry, HEK-293T with wt CD117 vs vector alone, IgG at 0.063 µg/mL. (In general: A flow cytometer gives signals particle by particle.)
Procedure: Binding of the antibodies to the transfected cells and the optimal assay conditions were evaluated in 384-well format. Detection of cellular expression was measured via high-throughput flow cytometry. Serial dilutions of each antibody were tested for immunoreactivity against cells expressing CD117 or vector alone. The optimal screening concentration for each antibody was determined based on the raw signal values and signal-to-background calculations. Each point represents the mean of four replicates.

The target of experiment [6] is T3, human CD117 D1-2-3 variant S261Q (human, UniProt P10721 26-311, limits assumed).
T3 construct: Recombinant purified
The experiment in a line: BLI (Octet) as in Example 7, CD117 variant as analyte; affinity class as drawn. For orientation: In BLI a coated tip is dipped into the sample, and binding shifts an interference pattern.

Experiment [7] addresses T4, human CD117 D1-2-3 variant S261E (human, UniProt P10721 26-311, limits assumed).
T4 construct: Recombinant purified
The description is as above.

Experiment [8] has as its target T5, CD117 D1-2-3 wt (human, UniProt P10721 26-311, limits assumed).
T5 construct: also called human CD117 wt containing only domains 1, 2 and 3; wild type CD117 (recombinant purified)
The experiment in a line: BLI (Octet) as in Example 7, CD117 as analyte; affinity class as drawn, classes defined by the key on the sheet.

The target in experiment [9] is T1, Y259G. In words: BLI (Octet) as in Example 7, CD117 variant as analyte; affinity class as drawn, classes defined by the key on the sheet.
Procedure: (§5) As an analyte, human CD117 wt and variants, containing only domains 1, 2 and 3 (CD117 D1-2-3), was titrated at 500 nM, 50 nM and 5 nM. […] Reference subtraction was performed against buffer only wells. AHC tips were regenerated using 10 mM Gly-HCl pH 1.7. Data were analyzed using the Octet Data Analysis software HT 12.0. Data were fitted (when possible) to a 1:1 binding model. Kinetic rates ka and ka were globally fitted. […] For this qualitative analysis, the binding level of the top analyte concentration at end of the association step was used.
The target of experiment [10] is B3. Described as above.
Procedure: as §5
Experiment [11] concerns the target human CD117 D1-2-3 variant Y259A (human, UniProt P10721 26-311, limits assumed). Described as above.
Procedure: as §5
For experiment [12], the target named is human CD117 D1-2-3 variant Y259E (human, UniProt P10721 26-311, limits assumed). Described as above.
Procedure: as §5
Experiment [13] has as its target human CD117 D1-2-3 variant Y259P (human, UniProt P10721 26-311, limits assumed). The description is as above.
Procedure: as §5
For experiment [14], the target named is T2, human wild-type CD117. The experiment in a line: flow cytometry, HEK-293T with wt CD117 vs vector alone, Fab at 0.50 µg/mL.
Experiment [15] concerns Refmab #3. In words: Octet: binding of CD117 variants to Refmab #3. The conditions noted are these: qualitative Octet analysis. As to the method: A more sophisticated analysis of binding to the elected variants was performed with antibody Refmab #1. Binding of Refmab #1 to wt and variants (analyte) was measured in an Octet system RED96e or R8 at 25° C. with shaking at 1,000 rpm using 1× kinetic buffer (Sartorius, PN: 18-1105). First, the elected variants were screened for their ability to bind Refmab #1 using three different concentrations of analytes. Antibody Refmab #1 was captured by Anti-Human Fc capture biosensor (AHC) (Sartorius, PN: 18-5060) for 300 s at 0.5 to 1 μg/mL. As an analyte, human CD117 wt and variants, containing only domains 1, 2 and 3 (CD117 D1-2-3), was titrated at 500 nM, 50 nM and 5 nM. Association and dissociation of the analyte to Refmab #1 was monitored for 300 s and 900 s, respectively. Reference subtraction was performed against buffer only wells. AHC tips were regenerated using 10 mM Gly-HCl pH 1.7. Data were analyzed using the Octet Data Analysis software HT 12.0. Data were fitted (when possible) to a 1:1 binding model. Kinetic rates ka and […] globally fitted. Binding level of the elected variants were compared to wild type and are shown as percent in FIG. 7. For this qualitative analysis, the binding level of the top analyte concentration at end of the association step was used.
A similar experiment to that in Example 7 was performed, but utilizing Refmab's #2 and #3.

The target in experiment [16] is T6, Biotinylated Avitag-hSCF (human, UniProt P21583 26-190, limits assumed, biotinylated Avitag).
T6 construct: Bought reagent; also called hSCF (Acros Biosystems SCF-H82E1)
The experiment in a line: BLI (Octet), steady state: biotinylated SCF on streptavidin biosensor, CD117 D1-2-3 variant as analyte.
Procedure: Domains 4 and 5 were used as a negative, non-binding control.
Association was monitored for 300 s and dissociation for 600 s. […] Reference subtraction was performed against buffer only wells. Biosensors were not regenerated and a new set of SA biosensors was used for each analyte. Data were analyzed using the Octet Data Analysis software HT 12.0. Steady state data analysis was performed due to the fast on/off nature of the interaction.

T6 sequence (P21583 26-190 limits assumed): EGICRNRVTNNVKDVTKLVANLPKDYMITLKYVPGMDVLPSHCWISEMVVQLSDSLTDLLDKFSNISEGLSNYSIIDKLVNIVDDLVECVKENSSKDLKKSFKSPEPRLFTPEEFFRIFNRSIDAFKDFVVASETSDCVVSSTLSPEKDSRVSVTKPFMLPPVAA

For the molecule `Cn1cc(-c2cc3c(N4CCN(c5ncc([C@@](C)(N)c6ccc(F)cc6)cn5)CC4)ncnn3c2)cn1` [avapritinib, reference compound], the “effect on SCF-dependent proliferation of wild type TF-1 cells” value in experiment [1] is “no proliferation”. Further, in [2], the “effect on SCF-dependent proliferation of TF-1 cells with CD117 variants” value is given as “no proliferation”. Also, in experiment [3], the “blocking of SCF-induced phosphorylation, wild type cells” value is “blocked”. Besides, in experiment [4], the “blocking of SCF-induced phosphorylation, E73K variant” value was “still blocks”.
As for B1, the “Signal:Background” value in experiment [5] was 8 ratio to background. The binding result in experiment [6] and in experiment [7] was “no binding (tested: not shown on the sheet)” in each case. Also, the Kd (in general, the constant that tells how readily two partners part at equilibrium) was below 0.005 µM in experiment [8]; above 0.05 µM in experiment [9]; above 0.05 µM in experiment [10]; above 0.05 µM in [11]; below 0.005 µM in experiment [12]; above 0.05 µM in experiment [13].
As to B2, the “Signal:Background” value in experiment [14] is 6 ratio to background.
On to B3, for which the “binding to Refmab #3 compared to wild type CD117” value in experiment [15] is “strong decrease in binding”. For the same molecule, the binding result in [16] is reported as “no binding (tested: 1000 nM (not on the sheet))”.

The record behind these values is patent US20250057951A1, “DISCERNIBLE CELL SURFACE PROTEIN VARIANTS OF CD117 FOR USE IN CELL THERAPY” (UNIVERSITÄT BASEL, priority 2021, published 2025).
